Source: PMC8931191

Target: 3HA-MCHR1 (melanin-concentrating hormone receptor 1) (mouse) (UniProt Q8JZL2)
UniProt Q8JZL2, sequence (Q8JZL2 whole entry): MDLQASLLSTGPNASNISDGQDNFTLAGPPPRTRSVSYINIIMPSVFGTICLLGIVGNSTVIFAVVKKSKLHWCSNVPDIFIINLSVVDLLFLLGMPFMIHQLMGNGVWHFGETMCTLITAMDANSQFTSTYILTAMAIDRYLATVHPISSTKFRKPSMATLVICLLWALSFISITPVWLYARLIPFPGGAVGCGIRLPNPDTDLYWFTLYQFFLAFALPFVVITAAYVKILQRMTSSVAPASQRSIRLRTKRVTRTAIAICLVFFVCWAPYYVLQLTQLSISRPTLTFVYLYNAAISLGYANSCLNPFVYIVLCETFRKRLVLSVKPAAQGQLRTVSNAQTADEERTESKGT

- LogEC50 of MCH (10^-11 to 10^-6 M), NFAT-luciferase Ca2+ reporter in HEK293T cells with MCHR1 alone: -8.15 log M
- LogEC50 of MCH, NFAT-luciferase Ca2+ reporter in HEK293T cells with MCHR1 and MRAP2 WT co-transfected (1:9): -7.06 log M
- LogEC50 of MCH, NFAT-luciferase Ca2+ reporter in HEK293T cells with MCHR1 and MRAP2 t97 co-transfected (1:9): -7.34 log M
- LogEC50 of MCH, NFAT-luciferase Ca2+ reporter in HEK293T cells with MCHR1 and MRAP2 t118 co-transfected (1:9): -7.59 log M
- LogEC50 of MCH, NFAT-luciferase Ca2+ reporter in HEK293T cells with MCHR1 and MRAP2 t143 co-transfected (1:9): -7.6 log M
- LogEC50 of MCH, NFAT-luciferase Ca2+ reporter in HEK293T cells with MCHR1 and MRAP2 Δ4–11 co-transfected (1:9): -7.24 log M
- LogEC50 of MCH, NFAT-luciferase Ca2+ reporter in HEK293T cells with MCHR1 and MRAP2 Δ12–25 co-transfected (1:9): -6.76 log M
- LogEC50 of MCH, NFAT-luciferase Ca2+ reporter in HEK293T cells with MCHR1 and MRAP2 Δ26–35 co-transfected (1:9): -7.55 log M
- LogEC50 of MCH, NFAT-luciferase Ca2+ reporter in HEK293T cells with MCHR1 and MRAP2 Δ36–45 co-transfected (1:9): -6.64 log M
- LogEC50 of MCH, NFAT-luciferase Ca2+ reporter in HEK293T cells with MCHR1 and MRAP2 Δct co-transfected (1:9): -7.51 log M
B1: Melanin concentrating hormone (MCH) (peptide)
peptide: DFDMLRCMLGRVYRPCWQV
